Source: the supplement of paper PMC10567573

B1: SOAT2 (parent)
chain: SLGKQKVFIIRKSLLDELMEVQHF
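Note: lentivirally expressed fusions sorted by FACS into six bins by GFP to DsRed ratio, PSI derived from sequencing read proportions per bin multiplied by bin number.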

Variants of: B1
Assay: protein stability index of a GFP-peptide fusion (GPS, HEK-293T) (PSI 1-6); higher = more stable
Conditions: c terminus: a fixed tail appended
In the case of SLGKQKTFIIRKSLLDELMEVQHF [V7T], the protein stability index is reported as 2.16. SLGKQKCFIIRKSLLDELMEVQHF [V7C] gave a protein stability index of 2.4. Variant SLGKQKSFIIRKSLLDELMEVQHF [V7S] has a protein stability index of 1.74. With SLGKQKAFIIRKSLLDELMEVQHF [V7A] the protein stability index was 1.72. Work on SLGKQKPFIIRKSLLDELMEVQHF [V7P] yielded a protein stability index of 1.49. For SLGKQKVAIIRKSLLDELMEVQHF [F8A], the protein stability index was 1.76. In the case of SLGKQKVIIIRKSLLDELMEVQHF [F8I], the protein stability index is reported as 2.15. In the case of SLGKQKVMIIRKSLLDELMEVQHF [F8M], the protein stability index is reported as 1.58. With SLGKQKVHIIRKSLLDELMEVQHF [F8H] the protein stability index was 1.71. Work on SLGKQKVEIIRKSLLDELMEVQHF [F8E] yielded a protein stability index of 2.58. SLGKQKVRIIRKSLLDELMEVQHF [F8R] showed a protein stability index of 2.36. SLGKQKVPIIRKSLLDELMEVQHF [F8P] gave a protein stability index of 1.66. In the case of SLGKQKVGIIRKSLLDELMEVQHF [F8G], the protein stability index is reported as 1.93. With SLGKQKVKIIRKSLLDELMEVQHF [F8K] the protein stability index was 1.88. SLGKQKVNIIRKSLLDELMEVQHF [F8N] gave a protein stability index of 1.5. SLGKQKVCIIRKSLLDELMEVQHF [F8C] showed a protein stability index of 2.49. SLGKQKVQIIRKSLLDELMEVQHF [F8Q] showed a protein stability index of 1.97. Work on SLGKQKVDIIRKSLLDELMEVQHF [F8D] yielded a protein stability index of 2.12. Work on SLGKQKVLIIRKSLLDELMEVQHF [F8L] yielded a protein stability index of 2.02. SLGKQKVSIIRKSLLDELMEVQHF [F8S] gave a protein stability index of 2.03. SLMKQKVFIIRKSLLDELMEVQHF [G3M] gave a protein stability index of 3.27. In the case of SLYKQKVFIIRKSLLDELMEVQHF [G3Y], the protein stability index is reported as 2.76. Work on SLTKQKVFIIRKSLLDELMEVQHF [G3T] yielded a protein stability index of 2.83. For SLRKQKVFIIRKSLLDELMEVQHF [G3R], the protein stability index was 2.98. SLIKQKVFIIRKSLLDELMEVQHF [G3I] showed a protein stability index of 3.27. Work on SLEKQKVFIIRKSLLDELMEVQHF [G3E] yielded a protein stability index of 1.94. SLDKQKVFIIRKSLLDELMEVQHF [G3D] gave a protein stability index of 2.12. In the case of SLFKQKVFIIRKSLLDELMEVQHF [G3F], the protein stability index is reported as 2.29. In the case of SLSKQKVFIIRKSLLDELMEVQHF [G3S], the protein stability index is reported as 2.73. SLKKQKVFIIRKSLLDELMEVQHF [G3K] showed a protein stability index of 1.74. With SLPKQKVFIIRKSLLDELMEVQHF [G3P] the protein stability index was 1.76. Work on SLAKQKVFIIRKSLLDELMEVQHF [G3A] yielded a protein stability index of 2.12. SLCKQKVFIIRKSLLDELMEVQHF [G3C] showed a protein stability index of 3.08. For SLVKQKVFIIRKSLLDELMEVQHF [G3V], the protein stability index was 2.97. Work on SLWKQKVFIIRKSLLDELMEVQHF [G3W] yielded a protein stability index of 2.5. For SLHKQKVFIIRKSLLDELMEVQHF [G3H], the protein stability index was 3.41. Variant SLNKQKVFIIRKSLLDELMEVQHF [G3N] has a protein stability index of 2.07. Work on SLLKQKVFIIRKSLLDELMEVQHF [G3L] yielded a protein stability index of 2.29. Variant SLGKQHVFIIRKSLLDELMEVQHF [K6H] has a protein stability index of 1.97. SLGKQEVFIIRKSLLDELMEVQHF [K6E] gave a protein stability index of 2.05. Work on SLGKQWVFIIRKSLLDELMEVQHF [K6W] yielded a protein stability index of 2.47. With SLGKQPVFIIRKSLLDELMEVQHF [K6P] the protein stability index was 1.96. SLGKQQVFIIRKSLLDELMEVQHF [K6Q] gave a protein stability index of 2.98. For SLGKQDVFIIRKSLLDELMEVQHF [K6D], the protein stability index was 1.67. Variant SLGKQSVFIIRKSLLDELMEVQHF [K6S] has a protein stability index of 2.46. Variant SLGKQNVFIIRKSLLDELMEVQHF [K6N] has a protein stability index of 1.6. Work on SLGKQRVFIIRKSLLDELMEVQHF [K6R] yielded a protein stability index of 2.74. SLGKQFVFIIRKSLLDELMEVQHF [K6F] showed a protein stability index of 2.71. For SLGKQYVFIIRKSLLDELMEVQHF [K6Y], the protein stability index was 2.67. Variant SLGKQGVFIIRKSLLDELMEVQHF [K6G] has a protein stability index of 1.99. In the case of SLGKQVVFIIRKSLLDELMEVQHF [K6V], the protein stability index is reported as 1.81. In the case of SLGKQMVFIIRKSLLDELMEVQHF [K6M], the protein stability index is reported as 3.33. With SLGKQIVFIIRKSLLDELMEVQHF [K6I] the protein stability index was 3.06. Work on SLGKQCVFIIRKSLLDELMEVQHF [K6C] yielded a protein stability index of 3.68. With SLGKQAVFIIRKSLLDELMEVQHF [K6A] the protein stability index was 2.08. With SLGKQTVFIIRKSLLDELMEVQHF [K6T] the protein stability index was 3.25. In the case of SLGKQLVFIIRKSLLDELMEVQHF [K6L], the protein stability index is reported as 2.24. With SLGKIKVFIIRKSLLDELMEVQHF [Q5I] the protein stability index was 2.44. With SLGKMKVFIIRKSLLDELMEVQHF [Q5M] the protein stability index was 3.06. In the case of SLGKKKVFIIRKSLLDELMEVQHF [Q5K], the protein stability index is reported as 2.63. SLGKAKVFIIRKSLLDELMEVQHF [Q5A] showed a protein stability index of 2.54. Work on SLGKTKVFIIRKSLLDELMEVQHF [Q5T] yielded a protein stability index of 2.23. SLGKNKVFIIRKSLLDELMEVQHF [Q5N] gave a protein stability index of 2.51. Work on SLGKCKVFIIRKSLLDELMEVQHF [Q5C] yielded a protein stability index of 2.75. Variant SLGKPKVFIIRKSLLDELMEVQHF [Q5P] has a protein stability index of 2.87. SLGKHKVFIIRKSLLDELMEVQHF [Q5H] showed a protein stability index of 2.05. SLGKGKVFIIRKSLLDELMEVQHF [Q5G] gave a protein stability index of 3.96. Work on SLGKSKVFIIRKSLLDELMEVQHF [Q5S] yielded a protein stability index of 2.73. SLGKWKVFIIRKSLLDELMEVQHF [Q5W] showed a protein stability index of 2.93. With SLGKYKVFIIRKSLLDELMEVQHF [Q5Y] the protein stability index was 1.85. For SLGKVKVFIIRKSLLDELMEVQHF [Q5V], the protein stability index was 2.91. For SLGKFKVFIIRKSLLDELMEVQHF [Q5F], the protein stability index was 3.55. SLGKRKVFIIRKSLLDELMEVQHF [Q5R] gave a protein stability index of 3.01. Work on SLGKLKVFIIRKSLLDELMEVQHF [Q5L] yielded a protein stability index of 3.31. SLGKDKVFIIRKSLLDELMEVQHF [Q5D] showed a protein stability index of 2.01. Variant SLGKEKVFIIRKSLLDELMEVQHF [Q5E] has a protein stability index of 2.04. In the case of SLGSQKVFIIRKSLLDELMEVQHF [K4S], the protein stability index is reported as 2.25. For SLGPQKVFIIRKSLLDELMEVQHF [K4P], the protein stability index was 1.74. Work on SLGRQKVFIIRKSLLDELMEVQHF [K4R] yielded a protein stability index of 2.29. For SLGNQKVFIIRKSLLDELMEVQHF [K4N], the protein stability index was 1.78. In the case of SLGFQKVFIIRKSLLDELMEVQHF [K4F], the protein stability index is reported as 2.22. SLGWQKVFIIRKSLLDELMEVQHF [K4W] gave a protein stability index of 2.19. Variant SLGDQKVFIIRKSLLDELMEVQHF [K4D] has a protein stability index of 1.91. With SLGHQKVFIIRKSLLDELMEVQHF [K4H] the protein stability index was 2.31. For SLGTQKVFIIRKSLLDELMEVQHF [K4T], the protein stability index was 2.4. Work on SLGQQKVFIIRKSLLDELMEVQHF [K4Q] yielded a protein stability index of 1.96. SLGYQKVFIIRKSLLDELMEVQHF [K4Y] gave a protein stability index of 2.8. For SLGEQKVFIIRKSLLDELMEVQHF [K4E], the protein stability index was 1.52. Variant SLGAQKVFIIRKSLLDELMEVQHF [K4A] has a protein stability index of 1.55. Variant SLGLQKVFIIRKSLLDELMEVQHF [K4L] has a protein stability index of 2.54. In the case of SLGMQKVFIIRKSLLDELMEVQHF [K4M], the protein stability index is reported as 2.15. With SLGVQKVFIIRKSLLDELMEVQHF [K4V] the protein stability index was 2.8. For SLGIQKVFIIRKSLLDELMEVQHF [K4I], the protein stability index was 2.17. With SLGCQKVFIIRKSLLDELMEVQHF [K4C] the protein stability index was 2.88.
